Three molecules from patent US20080181899A1 (Regeneron, published 2008) can be followed below.

Positions count from the first letter of the chain named.

The Kd is the equilibrium constant for the complex coming apart. The term koff denotes the rate constant with which the complex falls apart. A low value points to slow dissociation. The kon is the rate constant with which the complex forms. Low readings indicate slow association, high ones fast association. A word on the IC50: it is the concentration that gives 50% inhibition. Read a low IC50 as greater potency in that assay.

T1: M. facscicularis DII4 monomer (M. facscicularis, UniProt Q9NR61 27-524 (human entry))
T1 construct: also called mfDII4
T1 chain: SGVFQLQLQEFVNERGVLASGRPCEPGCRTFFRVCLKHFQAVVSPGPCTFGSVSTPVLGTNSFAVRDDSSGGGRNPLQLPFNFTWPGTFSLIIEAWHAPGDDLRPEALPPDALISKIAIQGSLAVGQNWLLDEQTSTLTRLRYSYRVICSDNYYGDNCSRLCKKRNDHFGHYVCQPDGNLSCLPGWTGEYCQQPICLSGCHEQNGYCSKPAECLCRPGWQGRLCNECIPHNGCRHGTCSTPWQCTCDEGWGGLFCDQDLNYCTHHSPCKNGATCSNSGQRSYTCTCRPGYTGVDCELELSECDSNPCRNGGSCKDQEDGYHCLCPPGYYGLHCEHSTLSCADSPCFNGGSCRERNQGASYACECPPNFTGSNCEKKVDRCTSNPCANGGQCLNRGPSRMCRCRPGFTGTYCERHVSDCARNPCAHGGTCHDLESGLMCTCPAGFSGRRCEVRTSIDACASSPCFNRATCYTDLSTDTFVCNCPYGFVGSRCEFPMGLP

T2: M. mulatta DII4 monomer (M. mulatta, UniProt Q9NR61 27-524 (human entry))
T2 construct: also called mmDII4
T2 chain: T1 chain with M495V

B1: 318518-01A10-D8 (antibody, human IgG1)
heavy: not shown
VL: EIVMTQSPATLSLSPGERATLSCRASQSVSSYLAWYQQKPGQAPRLLIYDASNRATGIPARFSGSGSGTDFTLTISSLEPEDFAVYYCQHRSNWPPTFGGGTKVEIK
notes: HCVR 429 with hIgG1 constant region 950; also called REGN281; 318518-1A10-D8
B2: REGN422 (antibody, human IgG4 S228P)
heavy: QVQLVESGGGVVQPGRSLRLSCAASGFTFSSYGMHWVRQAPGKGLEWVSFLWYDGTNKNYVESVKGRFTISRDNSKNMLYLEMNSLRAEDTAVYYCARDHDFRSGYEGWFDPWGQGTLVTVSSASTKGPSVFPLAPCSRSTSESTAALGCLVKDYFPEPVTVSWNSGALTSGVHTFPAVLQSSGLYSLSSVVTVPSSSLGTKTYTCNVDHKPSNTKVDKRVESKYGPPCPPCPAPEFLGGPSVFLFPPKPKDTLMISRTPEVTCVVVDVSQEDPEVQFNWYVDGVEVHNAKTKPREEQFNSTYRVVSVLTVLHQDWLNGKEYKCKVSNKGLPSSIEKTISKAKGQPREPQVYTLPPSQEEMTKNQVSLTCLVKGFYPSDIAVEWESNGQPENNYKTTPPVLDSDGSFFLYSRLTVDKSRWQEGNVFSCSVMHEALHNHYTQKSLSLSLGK
VL: B1 VL with M4L
notes: HCVR 901 with modified hIgG4 constant region 952
B3: REGN421 (antibody, human IgG1)
heavy: not shown
VL: B1 VL with M4L
notes: HCVR 901 with hIgG1 constant region 950

One test has as its target T3, monomeric hDII4 (human delta-like ligand 4) (human, UniProt Q9NR61 27-524).
T3 construct: also called monomeric DII4 protein
In words: SPR BIACORE; antibody captured by anti-hFc; monomer analyte. On the procedure:
(§1) The binding affinities of selected purified antibodies to hDII4, M. facscicularis DII4 (mfDII4, SEQ IN NO:956), and M. mulatta DII4 (mmDII4, SEQ ID NO:957) monomers were determined using a BIACORE™ 2000 & 3000.
For orientation: SPR reads the build-up and loss of mass on a sensor chip optically.
In the case of B1, the Kd came to 0.148 nM, the koff was 2.3e-05 s⁻¹ and the kon is 156000 M⁻¹ s⁻¹.
For B2 the same measures were 0.144 nM, 2.36e-05 s⁻¹ and 164000 M⁻¹ s⁻¹.
For B3 the same measures were 0.133 nM, 2.17e-05 s⁻¹ and 163000 M⁻¹ s⁻¹.

The target in the next test is T1, M. facscicularis DII4 monomer. The description is as above. On the procedure:
as §1
For the molecule B1, the Kd amounted to 0.307 nM, the koff was 2.04e-05 s⁻¹ and the kon stood at 66400 M⁻¹ s⁻¹.
On to B2, for which binding was put at a Kd of 0.36 nM, the koff was found to be 2.88e-05 s⁻¹ and the kon stood at 80100 M⁻¹ s⁻¹.
As for B3, the Kd amounted to 0.278 nM, the koff turned out to be 2.02e-05 s⁻¹ and the association rate constant (kon) turned out to be 72800 M⁻¹ s⁻¹.

The target in a further test is T2, M. mulatta DII4 monomer. The description is as above. On the procedure: as §1
In turn, B1 had a Kd of 0.329 nM, a koff of 3.05e-05 s⁻¹ and a kon of 92700 M⁻¹ s⁻¹.
B2: the Kd worked out at 0.375 nM, the koff is 3.41e-05 s⁻¹ and the on-rate (kon) came out at 92700 M⁻¹ s⁻¹.
For B3 the same measures were 0.333 nM, 3.23e-05 s⁻¹ and 97000 M⁻¹ s⁻¹.

A further test addresses T4, chimeric DII4 protein #3 (human N-terminal, DSL, EGF-1 and EGF-2 domains, S27-Q283, in mouse DII4) fused to … (human; mouse, UniProt Q9JI71 285-525).
T4 construct: not shown: mouse IgG2a-Fc fragment
Nature of the test: SPR BIACORE; DII4 protein captured by anti-mouse IgG; antibody at 100 µg/ml. On the procedure: (§2) Briefly, each of the DII4 proteins was captured (240-470 RU) on goat anti-mouse IgG antibody surfaces, followed by injection of test antibody at a concentration of 100 μg/ml (Table 11).
With B1, the binding result was “binds”.
The same measure, in the same setting: then B2, with “binds”.
Still for that read-out and setting: then B3, with “binds”.

In the next test the target is T5, chimeric DII4 protein #6 (human DSL domain, V173-Q218, in mouse DII4) fused to mouse IgG2a-Fc (mouse; human, UniProt Q9JI71 28-173; Q9JI71 220-525).
T5 construct: not shown: mouse IgG2a-Fc fragment
The description is as above. On the procedure:
as §2
B1: the binding result is on record as “binds”.
As to B2, the binding result is recorded as “binds”.
Still for that read-out and setting: then B3, with “binds”.

A further test addresses T6, chimeric DII4 protein #5 (human N-terminal domain, S27-R172, in mouse DII4) fused to mouse IgG2a-Fc (human; mouse, UniProt Q9JI71 174-525).
T6 construct: not shown: mouse IgG2a-Fc fragment
Described as above. The protocol: as §2
As to B1, the binding result is on record as “binds”.
Same read-out and setting: in the case of B2 it was “binds”.
Same read-out and setting: then B3, with “binds”.

The target of the next test is T7, chimeric DII4 protein #1 (human N-terminal and DSL domains, S27-Q218, in mouse DII4) fused to mouse IgG2a-Fc (human; mouse, UniProt Q9JI71 220-525).
T7 construct: Used as CHO-K1 conditioned medium; not shown: mouse IgG2a-Fc fragment
Described as above. The protocol: as §2
As to B1, the binding result is given as “binds”.
The same measure, in the same setting: in the case of B2 it was “binds”; in that of B3, “binds”.

In the next test the target is T8, dimeric hDII4-hFc (human, UniProt Q9NR61 27-524, biotin in Example 3 (biotin-DII4-hFc), site not stated).
T8 construct: also called DII4-Fc; biotin-DII4-hFc; not shown: human Fc
In words: competition ELISA; antibody titrated against 30 pM biotin-DII4-hFc (1 hr); free biotin-DII4-hFc on Notch-hFc plate. On the procedure:
The ability of the antibodies to block DII4 binding to Notch was evaluated with an ELISA-based immunoassay. Briefly, Notch-hFc recombinant protein was coated on a 96-well plate in PBS buffer overnight at 4° C. at […], and the nonspecific binding sites were blocked with BSA.
For orientation: ELISA stands for enzyme-linked immunosorbent assay.
In turn, B1 had an IC50 of 0.042 nM.
On the same count and under the same terms, in the case of B2 it was 0.039 nM.
In turn, B3 registered an IC50 of 0.045 nM.

In a further test the target is T9, mDII4-mFc (mouse, UniProt Q9JI71 28-525).
T9 construct: also called mouse DII4-mFc; not shown: mouse Fc
Nature of the test: SPR BIACORE; DII4 protein captured by anti-mouse IgG; antibody injected. On the procedure: as §2
On to B1, for which the binding result was “no binding (tested: 100 µg/ml)”.
On the same count and under the same terms, in the case of B2 it was “no binding (tested: 100 µg/ml)”; in that of B3, “no binding (tested: 100 µg/ml)”.

For a further test, the target named is T8, dimeric hDII4-hFc. In words: cell-based or functional assay.
As to B1, the “Notch-inducible luciferase assay IC50 (pM), 1 nM hDII4-hFc” value stood at 50.5 pM and the “Notch-inducible luciferase assay IC50 (pM), 1.5 nM hDII4-hFc” value was determined as 78.7 pM.
For B2, the “Notch-inducible luciferase assay IC50 (pM), 1 nM hDII4-hFc” value stood at 88.2 pM and the “Notch-inducible luciferase assay IC50 (pM), 1.5 nM hDII4-hFc” value was 131 pM.
The corresponding values for B3 are 54.4 pM and 87.3 pM.
